Test results: patent US20210238276A1 (INTEGRAL MOLECULAR, published 2021)

What was measured:
human GLUT1 (hsGLUT1) = target: T1, human GLUT1 (hsGLUT1) (human, UniProt P11166 1-492); test: flow cytometry, permeabilized transfected HEK-293T
T1 construct: whole, on cells
T1 sequence (looked up): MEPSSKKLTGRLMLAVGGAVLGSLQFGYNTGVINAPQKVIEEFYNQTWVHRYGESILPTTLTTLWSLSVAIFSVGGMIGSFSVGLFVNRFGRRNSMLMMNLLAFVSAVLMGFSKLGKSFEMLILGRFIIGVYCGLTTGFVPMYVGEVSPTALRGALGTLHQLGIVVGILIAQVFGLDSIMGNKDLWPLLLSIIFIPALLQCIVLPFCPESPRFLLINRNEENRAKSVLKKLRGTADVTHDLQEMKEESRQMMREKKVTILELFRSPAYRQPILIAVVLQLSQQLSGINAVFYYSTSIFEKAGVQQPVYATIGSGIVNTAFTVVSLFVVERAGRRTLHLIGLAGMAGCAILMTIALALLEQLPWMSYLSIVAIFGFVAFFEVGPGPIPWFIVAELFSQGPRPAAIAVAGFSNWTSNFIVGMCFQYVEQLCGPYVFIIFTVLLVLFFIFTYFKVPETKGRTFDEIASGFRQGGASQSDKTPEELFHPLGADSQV
Protocol: HEK-293T cells were transfected by CaPO₄ with plasmids in 6-well culture plates (Falcon) at 750,000 cells/well. At 48 hours post transfection, cells were stained with anti-V5 and anti-GLUT4 MAbs (purified scFv, 2 μg/ml) followed by biotinylated goat anti-mouse or human antibody (1:500) and streptavidin-PerCP (1:500). Fluorescence was detected using an Intellicyt high-throughput flow cytometer (HTFC; Intellicyt, Albuquerque, N. Mex.). For cell permeabilization, cells were treated with saponin at 0.1% in PBS for 20 minutes. To discriminate intact (live) and permeabilized (dead) cells without the use of detergent, propidium iodide (PI) was added to HEK-293T cells at 1 ug/ml just prior to flow cytometry. Where indicated, cytochalasin B (Sigma) was used at a final concentration of 10 uM and phloretin (Sigma) was used at a final concentration of 100 uM, each added in 10% NGS for 30 minutes prior to antibody staining as well as included with the primary antibody.

mouse GLUT4 (mmGLUT4) = target: T2, mouse GLUT4 (mmGLUT4) (mouse, UniProt P14142 1-509); test: immunofluorescence, surface of 3T3-L1 adipocytes (data not shown)
T2 construct: whole, on cells; Also tested as endogenous protein in murine 3T3-L1 adipocytes; also called endogenous GLUT4 of 3T3-L1 adipocytes
T2 sequence (looked up): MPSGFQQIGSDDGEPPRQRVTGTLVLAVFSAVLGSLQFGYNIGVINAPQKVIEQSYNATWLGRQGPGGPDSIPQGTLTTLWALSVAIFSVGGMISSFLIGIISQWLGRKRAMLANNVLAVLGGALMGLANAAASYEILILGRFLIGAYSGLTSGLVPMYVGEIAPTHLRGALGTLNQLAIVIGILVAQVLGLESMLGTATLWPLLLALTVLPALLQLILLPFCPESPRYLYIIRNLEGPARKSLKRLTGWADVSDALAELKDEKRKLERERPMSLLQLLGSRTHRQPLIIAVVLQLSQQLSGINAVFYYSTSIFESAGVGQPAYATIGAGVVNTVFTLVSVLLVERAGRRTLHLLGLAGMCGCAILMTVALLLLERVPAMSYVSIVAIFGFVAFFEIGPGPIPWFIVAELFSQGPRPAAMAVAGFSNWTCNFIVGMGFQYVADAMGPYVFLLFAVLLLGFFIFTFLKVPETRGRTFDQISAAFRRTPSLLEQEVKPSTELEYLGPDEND
Protocol: Adipocytes, between 7-8 days post-differentiation, were serum-starved for 3 hours in Dulbecco's modified Eagle's medium with […] bicarbonate and 20 mM HEPES pH 7.4, prior to stimulation for 20 minutes at 37° C. with or without 170 nM human insulin (Sigma Aldrich) prepared in the same media with 2% BSA. Adipocytes were washed twice with ice-cold PBS with calcium and magnesium (PBS+/+) and remained on ice for all subsequent steps.
Adipocytes were blocked with 10% Normal Goat Serum (NGS) in PBS+/+ for 30 minutes on ice before adding test antibodies at 10 ug/ml in 10% NGS. Primary antibodies were incubated for 2 hours, then washed 2× with PBS+/+. Cells were subsequently fixed for 5 minutes in 4% paraformaldehyde (PFA), washed 2× with PBS+/+, and then stained with secondary antibody (AF488 conjugated Goat anti-human, Jackson Immunoresearch) diluted 1:200 in 10% NGS. Secondary antibody was incubated for 1 hour, after washing 3× with PBS+/+. For intracellular staining, cells were fixed prior to the blocking step and permeabilized with 10% NGS containing 0.2% Saponin. The 1F8 antibody was used at 1 μg/ml, and detected using AF647-conjugated goat anti-mouse secondary antibody diluted 1:400 (Jackson Immunoresearch). Alexafluor 488 was visualized using the B-2EC cube with an exposure time of 1.5 seconds. Alexafluor 647 was visualized using the Cy5 cube with an exposure time of 2 seconds.

Binder	binding result (human GLUT1 (hsGLUT1))	binding result (mouse GLUT4 (mmGLUT4))
AB102 (Fc fusion, also called MAb AB102; not shown: Fc fragment of human IgG1, cloned in frame with the scFv) scFv: ALTQPSSVSANLGGTVKITCSGGGSYGYGWYQQKSPGSAPVTVIYSNDQRPSDIPSRFSGSKSGSTATLTITGVRAEDEAIYYCGSTDSDYVGIFGAGTTLTVLGQSSRSSGGGGSSGGGGSAVTLDESGGGLQTPGGTLSLVCKASGFDFSSYATIWVRQAPGKGLEWVAGISGTGTGSSTGYAPAVKGRATISRDNGQSTVRLQLNNLRAEDTGSYFCAKSTGYGDSWIYPDSIDAWGHGTEVIVSS	binds	
AB105 (Fc fusion, Bivalent scFv-Fc; also called MAb AB105; not shown: Fc fragment of human IgG1, cloned in frame with the scFv) scFv: ALTQPSSVSANPGETVEITCSGDSSYYGWYQQKSPGSAPVTVIYANTNRPSDIPSRFSGSASGSTATLTITGVQAEDEAVYYCGSADSTYAGIFGAGTTLTVLGQSSRSSGGGGSSGGGGSAVTLDESGGGLQTPGGALSLICKASGFTFSSYTMNWVRQAPGKGLEWVGVISNSGRTTNYGAAVQGRATISRDNGQSTVRLQLNNLRAEDTGTYYCAKSSASASCAWWAGRSYPCSANRIDAWGHGTEVIVSS		binds
